Drawing on PMC5570134, this text covers Kd for two molecules.

This series concerns the target FUS RRM (UniProt P35637 267-373). The experiment in a line: EMSA. In general terms: Mobility shift assays separate free from complexed probe on a gel.

FUS RRM, sequence (P35637 267-373): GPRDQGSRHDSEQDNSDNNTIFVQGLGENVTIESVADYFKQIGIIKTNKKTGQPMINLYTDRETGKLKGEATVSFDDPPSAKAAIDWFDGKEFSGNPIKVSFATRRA

As a reminder, the Kd is the concentration at which binding is half-saturated. The low end stands for a tighter complex, the high end for a looser complex. AAAAAAAAAAAAAAAAAAAAAAAAAAAAAAAAAAAAAAAA (ssRNA) [Poly-A]: the Kd stood at 45 ± 2 µM. Consider GCUGCGGUGUGGAAGGAGUGGCUGGGUUGCGCAGG (structured_RNA) [Sc1], for which the Kd amounted to 48 ± 3 µM.
